Data from patent US20250076311A1 (Chugai, published 2025).

Assays:
[1] = biological target: T1, cynomolgus monkey FcγRIIIaS extracellular domain with C-terminal His-tag (cynomolgus monkey, UniProt A3RFZ7 21-206 (rhesus entry)); assay: SPR (BIACORE); KD of SG1 / KD of variant
T1 construct: also called cyno FcgRIIIaS; cynoFcγRIIIaS; not shown: His-tag added to the C-terminus
Method: (§1) The kinetic analysis of interactions between these antibodies and FcγR was carried out using BIACORE® T200 or BIACORE® 4000 (GE Healthcare). HBS-EP+ (GE Healthcare) was used as the running buffer, and the measurement temperature was set to 25° C. […] After the measurement, the antibody captured on the chip was washed off by allowing reaction with 10 mM glycine-HCl, pH1.5 and 25 mM NaOH so that the chip was regenerated and used repeatedly. The sensorgrams obtained as measurement results were analyzed by the 1:1 Langmuir binding model using the BIACORE® Evaluation Software to calculate the binding rate constant ka (L/mol/s) and dissociation rate constant kd (1/s), and the dissociation constant KD (mol/L) was calculated from these values. […] Regarding such interactions, KD values were calculated using the following 1:1 binding model described in BIACORE® T100 Software Handbook BR1006-48 Edition AE.

[2] = biological target: T2, human FcγRIIIaV extracellular domain with C-terminal His-tag (human, UniProt P08637 17-208); assay: SPR (BIACORE), antibody captured, FcgR analyte
T2 construct: also called human FcgRIIIaV; not shown: His-tag added to the C-terminus

[3] = biological target: T1, cynomolgus monkey FcγRIIIaS …; assay: SPR (BIACORE), antibody captured, FcgR analyte
[4] = biological target: T3, human FcγRIIaH extracellular domain with C-terminal His-tag (human, UniProt P12318 34-217); assay: SPR (BIACORE), antibody captured, FcgR analyte
T3 construct: also called human FcgRIIaH; FcγRIIa type H; not shown: His-tag added to the C-terminus
T3 sequence: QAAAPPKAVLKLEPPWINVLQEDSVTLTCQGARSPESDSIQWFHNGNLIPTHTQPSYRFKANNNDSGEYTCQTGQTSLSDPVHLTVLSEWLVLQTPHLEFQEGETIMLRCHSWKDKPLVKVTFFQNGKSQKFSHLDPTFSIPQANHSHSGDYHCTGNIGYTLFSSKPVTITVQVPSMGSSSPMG

[5] = biological target: T4, cynomolgus monkey FcγRIIa3 extracellular domain with C-terminal His-tag (cynomolgus monkey); assay: SPR (BIACORE), antibody captured, FcgR analyte
T4 construct: also called cyno FcgRIIa3; cynoFcγRIIa3; not shown: His-tag added to the C-terminus
T4 chain: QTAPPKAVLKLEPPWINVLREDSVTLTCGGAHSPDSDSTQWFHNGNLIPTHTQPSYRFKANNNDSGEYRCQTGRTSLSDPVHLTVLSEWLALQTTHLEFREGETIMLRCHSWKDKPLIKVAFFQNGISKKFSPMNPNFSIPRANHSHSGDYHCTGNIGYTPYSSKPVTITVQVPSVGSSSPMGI

[6] = biological target: T5, human FcγRIIb extracellular domain with C-terminal His-tag (human, UniProt P31994 43-217); assay: SPR (BIACORE), antibody captured, FcgR analyte
T5 construct: also called human FcgRIIb; not shown: His-tag added to the C-terminus
T5 sequence: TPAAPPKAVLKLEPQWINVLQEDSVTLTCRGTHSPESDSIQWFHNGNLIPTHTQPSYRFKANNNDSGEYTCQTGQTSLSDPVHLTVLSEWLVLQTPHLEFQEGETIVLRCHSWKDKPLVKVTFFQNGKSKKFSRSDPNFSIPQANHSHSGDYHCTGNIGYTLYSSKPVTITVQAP

[7] = biological target: T6, cynomolgus monkey FcγRIIIaS extracellular domain, His-tagged (cynomolgus monkey, UniProt Q8SPW2 21-206 at identity 1.00)); assay: SPR (BIACORE), antibody captured, FcγR analyte, 25 C; KD of SG1 divided by KD of variant
T6 construct: also called cyno FcγRIIIaS; cynoFcgRIIIaS
T6 chain: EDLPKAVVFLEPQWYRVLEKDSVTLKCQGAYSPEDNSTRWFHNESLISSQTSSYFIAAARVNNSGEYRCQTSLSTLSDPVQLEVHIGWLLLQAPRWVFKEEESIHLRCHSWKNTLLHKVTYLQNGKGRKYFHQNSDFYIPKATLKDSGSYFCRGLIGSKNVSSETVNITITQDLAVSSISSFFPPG
Method: as §1

[8] = biological target: T7, human FcγRIIaR extracellular domain with C-terminal His-tag (human, UniProt P12318 34-217); assay: SPR (BIACORE), antibody captured, FcgR analyte
T7 construct: also called human FcgRIIaR; FcγRIIa type R; not shown: His-tag added to the C-terminus
T7 chain: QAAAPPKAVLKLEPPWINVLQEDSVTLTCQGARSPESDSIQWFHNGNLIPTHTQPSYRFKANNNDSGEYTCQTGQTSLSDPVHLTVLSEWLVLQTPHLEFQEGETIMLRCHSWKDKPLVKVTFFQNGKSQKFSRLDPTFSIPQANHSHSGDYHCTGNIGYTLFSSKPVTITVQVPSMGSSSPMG

T2 sequence (P08637 17-208 F176V): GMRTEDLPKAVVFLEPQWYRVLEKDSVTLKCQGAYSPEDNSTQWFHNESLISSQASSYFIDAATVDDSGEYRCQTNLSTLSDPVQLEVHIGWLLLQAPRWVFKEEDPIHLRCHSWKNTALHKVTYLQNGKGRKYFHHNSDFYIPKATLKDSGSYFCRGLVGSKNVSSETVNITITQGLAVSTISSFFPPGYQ

B1: M103205H795-MY051/M103202L889-SK1 (antibody, human IgG1, kappa, name in EU numbering)
heavy: QVTLKESGPVLVKPTETLTLTCTVSGIDLSHDDISWVRQAPGKGLEWVGIISYAGSTYYASWAKGRLTISKDTSKNQVVLTMTNMDPVDTATYYCARGVPAYSHGGDLWGQGTLVTVSSASTKGPSVFPLAPSSKSTSGGTAALGCLVKDYFPEPVTVSWNSGALTSGVHTFPAVLQSSGLYSLSSVVTVPSSSLGTQTYICNVNHKPSNTKVDKKVEPKSCDKTHTCPPCPAPELLNGPSVFLFPPKPKDTLMISRTPEVTCVVVDVSEEDGEVKFNWYVDGVEVHNAKTKPREEQYNSTYRVVSVLTVLHQDWLNGKEYKCKVSNKALPAPIEKTISKAKGQPREPQVYTLPPSREEMTKNQVSLTCLVKGFYPSDIAVEWESNGQPENNYKTTPPVLDSDGSFFLYSKLTVDKSRWQQGNVFSCSVMHEALHNHYTQKSLSLSP
light: DIVMTQSPATLSLSPGERATLSCTSSQSVYHANWLSWFQQKPGQPPKLLIYWASTLAYGVPSRFSGSGSGTDFTLTISSLQPEDAATYYCAGGYGGGRYAFGQGTKVEIKRTVAAPSVFIFPPSDEQLKSGTASVVCLLNNFYPREAKVQWKVDNALQSGNSQESVTEQDSKDSTYSLSSTLTLSKADYEKHKVYACEVTHQGLSSPVTKSFNRGEC
notes: Fc variant of MS1032LO06-SG1; positions in EU numbering
KD fold (SG1 = 1) [1]: 0.17 fold
Kd [2]: 7.4 µM
Kd [3]: 2100 nM
Kd [4]: 2200 nM

B2: M103205H795-MY207/M103202L889-SK1 (antibody, human IgG1, kappa, name in EU numbering)
heavy: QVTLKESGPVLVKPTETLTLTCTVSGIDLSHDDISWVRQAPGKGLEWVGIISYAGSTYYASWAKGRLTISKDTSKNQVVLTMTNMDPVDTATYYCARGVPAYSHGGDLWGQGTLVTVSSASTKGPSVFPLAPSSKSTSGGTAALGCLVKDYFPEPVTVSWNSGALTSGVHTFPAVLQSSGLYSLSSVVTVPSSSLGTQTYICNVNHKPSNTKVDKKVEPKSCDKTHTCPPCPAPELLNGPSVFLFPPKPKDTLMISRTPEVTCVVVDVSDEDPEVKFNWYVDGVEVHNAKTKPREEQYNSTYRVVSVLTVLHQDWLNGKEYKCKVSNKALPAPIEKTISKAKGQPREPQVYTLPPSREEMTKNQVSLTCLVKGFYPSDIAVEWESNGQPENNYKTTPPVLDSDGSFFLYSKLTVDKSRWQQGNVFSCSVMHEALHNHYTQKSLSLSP
light: DIVMTQSPATLSLSPGERATLSCTSSQSVYHANWLSWFQQKPGQPPKLLIYWASTLAYGVPSRFSGSGSGTDFTLTISSLQPEDAATYYCAGGYGGGRYAFGQGTKVEIKRTVAAPSVFIFPPSDEQLKSGTASVVCLLNNFYPREAKVQWKVDNALQSGNSQESVTEQDSKDSTYSLSSTLTLSKADYEKHKVYACEVTHQGLSSPVTKSFNRGEC
notes: as for B1
Kd [5]: 6.9 µM
Kd [6]: 1500 nM
Kd [3]: 4100 nM
Kd [4]: 1300 nM

B3: M103205H795-MY447/M103202L889-SK1 (antibody, human IgG1, kappa, name in EU numbering)
heavy: QVTLKESGPVLVKPTETLTLTCTVSGIDLSHDDISWVRQAPGKGLEWVGIISYAGSTYYASWAKGRLTISKDTSKNQVVLTMTNMDPVDTATYYCARGVPAYSHGGDLWGQGTLVTVSSASTKGPSVFPLAPSSKSTSGGTAALGCLVKDYFPEPVTVSWNSGALTSGVHTFPAVLQSSGLYSLSSVVTVPSSSLGTQTYICNVNHKPSNTKVDKKVEPKSCDKTHTCPPCPAIELLTGPSVFLFPPKPKDTLMISRTPEVTCVVVDVSDEDPEVKFNWYVDGVEVHNAKTKPREEQYNSTYRVVSVLTVLHQDWLNGKEYKCKVSNKALPKPIEKTISKAKGQPREPQVYTLPPSREEMTKNQVSLTCLVKGFYPSDIAVEWESNGQPENNYKTTPPVLDSDGSFFLYSKLTVDKSRWQQGNVFSCSVMHEALHNHYTQKSLSLSP
light: DIVMTQSPATLSLSPGERATLSCTSSQSVYHANWLSWFQQKPGQPPKLLIYWASTLAYGVPSRFSGSGSGTDFTLTISSLQPEDAATYYCAGGYGGGRYAFGQGTKVEIKRTVAAPSVFIFPPSDEQLKSGTASVVCLLNNFYPREAKVQWKVDNALQSGNSQESVTEQDSKDSTYSLSSTLTLSKADYEKHKVYACEVTHQGLSSPVTKSFNRGEC
KD fold (SG1 = 1) [7]: 0.3 fold

B4: M103205H795-MY115/M103202L889-SK1 (antibody, human IgG1, kappa, name in EU numbering)
heavy: QVTLKESGPVLVKPTETLTLTCTVSGIDLSHDDISWVRQAPGKGLEWVGIISYAGSTYYASWAKGRLTISKDTSKNQVVLTMTNMDPVDTATYYCARGVPAYSHGGDLWGQGTLVTVSSASTKGPSVFPLAPSSKSTSGGTAALGCLVKDYFPEPVTVSWNSGALTSGVHTFPAVLQSSGLYSLSSVVTVPSSSLGTQTYICNVNHKPSNTKVDKKVEPKSCDKTHTCPPCPAPELLNGPSVFLFPPKPKDTLMISRTPEVTCVVVDVAEEDPEVKFNWYVDGVEVHNAKTKPREEQYNSTYRVVSVLTVLHQDWLNGKEYKCKVSNKALPAPIEKTISKAKGQPREPQVYTLPPSREEMTKNQVSLTCLVKGFYPSDIAVEWESNGQPENNYKTTPMVLDSDGSFFLYSKLTVDKSRWQQGNVFSCSVMHEALHNHYTQKSLSLSP
light: DIVMTQSPATLSLSPGERATLSCTSSQSVYHANWLSWFQQKPGQPPKLLIYWASTLAYGVPSRFSGSGSGTDFTLTISSLQPEDAATYYCAGGYGGGRYAFGQGTKVEIKRTVAAPSVFIFPPSDEQLKSGTASVVCLLNNFYPREAKVQWKVDNALQSGNSQESVTEQDSKDSTYSLSSTLTLSKADYEKHKVYACEVTHQGLSSPVTKSFNRGEC
notes: as for B1
KD fold (SG1 = 1) [1]: 0.42 fold
Kd [5]: 7.6 µM
Kd [6]: 320 nM
Kd [3]: 850 nM

B5: M103205H795-MY451/M103202L889-SK1 (antibody, human IgG1, kappa, name in EU numbering)
heavy: QVTLKESGPVLVKPTETLTLTCTVSGIDLSHDDISWVRQAPGKGLEWVGIISYAGSTYYASWAKGRLTISKDTSKNQVVLTMTNMDPVDTATYYCARGVPAYSHGGDLWGQGTLVTVSSASTKGPSVFPLAPSSKSTSGGTAALGCLVKDYFPEPVTVSWNSGALTSGVHTFPAVLQSSGLYSLSSVVTVPSSSLGTQTYICNVNHKPSNTKVDKKVEPKSCDKTHTCPPCPANELLTGPSVFLFPPKPKDTLMISRTPEVTCVVVDVSDEDPEVKFNWYVDGVEVHNAKTKPREEQYNSTYRVVSVLTVLHQDWLNGKEYKCKVSNKALPKPIEKTISKAKGQPREPQVYTLPPSREEMTKNQVSLTCLVKGFYPSDIAVEWESNGQPENNYKTTPPVLDSDGSFFLYSKLTVDKSRWQQGNVFSCSVMHEALHNHYTQKSLSLSP
light: DIVMTQSPATLSLSPGERATLSCTSSQSVYHANWLSWFQQKPGQPPKLLIYWASTLAYGVPSRFSGSGSGTDFTLTISSLQPEDAATYYCAGGYGGGRYAFGQGTKVEIKRTVAAPSVFIFPPSDEQLKSGTASVVCLLNNFYPREAKVQWKVDNALQSGNSQESVTEQDSKDSTYSLSSTLTLSKADYEKHKVYACEVTHQGLSSPVTKSFNRGEC
KD fold (SG1 = 1) [7]: 0.2 fold

B6: M103205H795-MY208/M103202L889-SK1 (antibody, human IgG1, kappa, name in EU numbering)
heavy: QVTLKESGPVLVKPTETLTLTCTVSGIDLSHDDISWVRQAPGKGLEWVGIISYAGSTYYASWAKGRLTISKDTSKNQVVLTMTNMDPVDTATYYCARGVPAYSHGGDLWGQGTLVTVSSASTKGPSVFPLAPSSKSTSGGTAALGCLVKDYFPEPVTVSWNSGALTSGVHTFPAVLQSSGLYSLSSVVTVPSSSLGTQTYICNVNHKPSNTKVDKKVEPKSCDKTHTCPPCPAPELLNGPSVFLFPPKPKDTLMISRTPEVTCVVVDVSDEDPEVKFNWYVDGVEVHNAKTKPREELYNSTYRVVSVLTVLHQDWLNGKEYKCKVSNKALPAPIEKTISKAKGQPREPQVYTLPPSREEMTKNQVSLTCLVKGFYPSDIAVEWESNGQPENNYKTTPPVLDSDGSFFLYSKLTVDKSRWQQGNVFSCSVMHEALHNHYTQKSLSLSP
light: DIVMTQSPATLSLSPGERATLSCTSSQSVYHANWLSWFQQKPGQPPKLLIYWASTLAYGVPSRFSGSGSGTDFTLTISSLQPEDAATYYCAGGYGGGRYAFGQGTKVEIKRTVAAPSVFIFPPSDEQLKSGTASVVCLLNNFYPREAKVQWKVDNALQSGNSQESVTEQDSKDSTYSLSSTLTLSKADYEKHKVYACEVTHQGLSSPVTKSFNRGEC
notes: as for B1
Kd [5]: 6.7 µM
Kd [8]: 2100 nM
Kd [6]: 1100 nM
Kd [3]: 28 nM
Kd [4]: 830 nM
